In patent US20240317838A1, “LACTOFERRIN COMPOSITIONS AND METHODS OF USE” (LACTEA THERAPEUTICS LLC, priority 2021, published 2024):

B1: API-E2: bovine lactoferrin purified from raw, untreated milk by cation exchange chromatography and filtration according to Example 1 (protein)
chain: APRKNVRWCTISQPEWFKCRRWQWRMKKLGAPSITCVRRAFALECIRAIAEKKADAVTLDGGMVFEAGRDPYKLRPVAAEIYGTKESPQTHYYAVAVVKKGSNFQLDQLQGRKSCHTGLGRSAGWVIPMGILRPYLSWTESLEPLQGAVAKFFSASCVPCIDRQAYPNLCQLCKGEGENQCACSSREPYFGYSGAFKCLQDGAGDVAFVKETTVFENLPEKADRDQYELLCLNNSRAPVDAFKECHLAQVPSHAVVARSVDGKEDLIWKLLSKAQEKFGKNKSRSFQLFGSPPGQRDLLFKDSALGFLRIPSKVDSALYLGSRYLTTLKNLRETAEEVKARYTRVVWCAVGPEEQKKCQQWSQQSGQNVTCATASTTDDCIVLVLKGEADALNLDGGYIYTAGKCGLVPVLAENRKTSKYSSLDCVLRPTEGYLAVAVVKKANEGLTWNSLKDKKSCHTAVDRTAGWNIPMGLIVNQTGSCAFDEFFSQSCAPGRDPKSRLCALCAGDDQGLDKCVPNSKEKYYGYTGAFRCLAEDVGDVAFVKNDTVWENTNGESTADWAKNLNREDFRLLCLDGTRKPVTEAQSCHLAVAPNHAVVSRSDRAAHVKQVLLHQQALFGKNGKNCPDKFCLFKSETKNLLFNDNTECLAKLGGRPTYEEYLGTEYVTAIANLKKCSTSPLLEACAFLTR
B2: heat-treated API-E2 Lactoferrin: API-E2 Lactoferrin heated across a range of 50-100° C. (protein, UniProt P24627 20-708, looked up)
Lactotransferrin: APRKNVRWCTISQPEWFKCRRWQWRMKKLGAPSITCVRRAFALECIRAIAEKKADAVTLDGGMVFEAGRDPYKLRPVAAEIYGTKESPQTHYYAVAVVKKGSNFQLDQLQGRKSCHTGLGRSAGWIIPMGILRPYLSWTESLEPLQGAVAKFFSASCVPCIDRQAYPNLCQLCKGEGENQCACSSREPYFGYSGAFKCLQDGAGDVAFVKETTVFENLPEKADRDQYELLCLNNSRAPVDAFKECHLAQVPSHAVVARSVDGKEDLIWKLLSKAQEKFGKNKSRSFQLFGSPPGQRDLLFKDSALGFLRIPSKVDSALYLGSRYLTTLKNLRETAEEVKARYTRVVWCAVGPEEQKKCQQWSQQSGQNVTCATASTTDDCIVLVLKGEADALNLDGGYIYTAGKCGLVPVLAENRKSSKHSSLDCVLRPTEGYLAVAVVKKANEGLTWNSLKDKKSCHTAVDRTAGWNIPMGLIVNQTGSCAFDEFFSQSCAPGADPKSRLCALCAGDDQGLDKCVPNSKEKYYGYTGAFRCLAEDVGDVAFVKNDTVWENTNGESTADWAKNLNREDFRLLCLDGTRKPVTEAQSCHLAVAPNHAVVSRSDRAAHVKQVLLHQQALFGKNGKNCPDKFCLFKSETKNLLFNDNTECLAKLGGRPTYEEYLGTEYVTAIANLKKCSTSPLLEACAFLTR
modifications: heat-treated
B3: Lab-grade standard lactoferrin: commercially available Sigma lab-grade standard lactoferrin (L9507) (protein, UniProt P24627 20-708, looked up)
Lactotransferrin: APRKNVRWCTISQPEWFKCRRWQWRMKKLGAPSITCVRRAFALECIRAIAEKKADAVTLDGGMVFEAGRDPYKLRPVAAEIYGTKESPQTHYYAVAVVKKGSNFQLDQLQGRKSCHTGLGRSAGWIIPMGILRPYLSWTESLEPLQGAVAKFFSASCVPCIDRQAYPNLCQLCKGEGENQCACSSREPYFGYSGAFKCLQDGAGDVAFVKETTVFENLPEKADRDQYELLCLNNSRAPVDAFKECHLAQVPSHAVVARSVDGKEDLIWKLLSKAQEKFGKNKSRSFQLFGSPPGQRDLLFKDSALGFLRIPSKVDSALYLGSRYLTTLKNLRETAEEVKARYTRVVWCAVGPEEQKKCQQWSQQSGQNVTCATASTTDDCIVLVLKGEADALNLDGGYIYTAGKCGLVPVLAENRKSSKHSSLDCVLRPTEGYLAVAVVKKANEGLTWNSLKDKKSCHTAVDRTAGWNIPMGLIVNQTGSCAFDEFFSQSCAPGADPKSRLCALCAGDDQGLDKCVPNSKEKYYGYTGAFRCLAEDVGDVAFVKNDTVWENTNGESTADWAKNLNREDFRLLCLDGTRKPVTEAQSCHLAVAPNHAVVSRSDRAAHVKQVLLHQQALFGKNGKNCPDKFCLFKSETKNLLFNDNTECLAKLGGRPTYEEYLGTEYVTAIANLKKCSTSPLLEACAFLTR

Columns and labels:
[1] = DSC iron binding capability with 1000× molar excess FeCl3; assay type: physicochemical; conditions: FeCl3 in 1000× molar excess
Experimental: The DSC assay was further used to assess Lactoferrin bioactivity, specifically the iron binding capability of the API-E2 Lactoferrin. Iron chloride (FeCl3) was added in 1000× molar excess to API-E2 Lactoferrin. In the presence of excess iron, the API-E2 lactoferrin will bind the iron to its open iron binding site.

ECM of the buccal cells = test: ECM binding by immunofluorescence imaging in primary buccal cells; assay type: cell-based; conditions: 100 μg/mL, 1 hr at 37 C
Experimental: Primary buccal cells were next cultured according to a standard protocol (e.g., see Russo et al. Cytotechnology. 2016 October; 68(5): 2105-2114; herein incorporated by reference for all purposes). […] Immunofluorescence imaging was performed as previously described.

[2] = Differential Scanning calorimetry (DSC) of lactoferrin samples; assay type: physicochemical
Experimental: Di[…] calorimetry (DSC) was used to assess the hololactoferrin and apolactoferrin forms through monitoring unfolding temperatures of lactoferrin samples using a nanoDSC (TA Instruments, Lindon, UT) according to standard DSC protocols known to those of skill in the art (e.g., see Hinz et al “M[…] OF RESULTS OBTAINED ON […] DI[…] CALORIMETRY”; herein incorporated by reference for all purposes.
API-E2 Lactoferrin (10 mg/mL), produced as described herein, was assessed by DSC. […] The lack of other peaks indicates the lack of contaminants and impurities and can assess API-E2 as ˜100%. […] Additionally, the lack of other peaks also indicated the purity of API-E2 Lactoferrin. […] The API-E2 hololactoferrin peak has a Tm of 88.38+/−0.8 C and a delta H of 632.7+/−7.2 kJ/mol. The hololactoferrin natively accounted for on average 8.74+/−1.39% of the total API-E2 lactoferrin with apolactoferrin accounting for the rest in the samples tested. However, the hololactoferrin percentage can be naturally variable. The API-E2 was calculated by this technique to contain virtually 100% pure lactoferrin.
The assay was also performed with heat-treated API-E2 Lactoferrin. API-E2 Lactoferrin was heated across a range of 50-100° C.

[3] = tested on: Salivary bacteria (including Lactobacillus, Lactococcus, and Streptococcus mutans); test: Salivary bacteria acid production by pH testing; assay type: cell-based; conditions: in the presence of sucrose
Experimental: Salivary bacteria (including Lactobacillus, Lactococcus, and Streptococcus mutans) produce acid during growth. This acidification is strongly associated with tooth decay, particularly when it results in pH below 5.5, which is a clinically relevant threshold. A slurry of these bacteria were treated with sucrose to stimulate growth, as well as varying concentrations of API-E2 lactoferrin. Upon the addition of sucrose and API-E2 lactoferrin, the pH was adjusted to 7 through a titration and the change in pH was subsequently monitored over the next 6 hours.

lactoperoxidase (LPO) = test: Enzymatic assay for lactoperoxidase (LPO) activity; assay type: biochemical; conditions: colorimetric, turns blue in the presence of peroxidase activity
From the text: An enzymatic assay for lactoperoxidase (LPO) activity was developed utilizing a molecule which in the presence of peroxidase activity turns a blue color.

Molecule	available Apolactoferrin shifted to the Hololactoferrin form upon addition of excess iron [1] [%]	ECM association of Lactoferrin (ECM of the buccal cells)	% of Total, apolactoferrin ([2]; native, no added iron)	pH maintained for the entire 6 hour testing period ([3]; 1 mg/mL)	pH maintained for the entire 6 hour testing period ([3]; 10 mg/mL)	LPO enzymatic activity of the sample (lactoperoxidase (LPO))	DSC peaks observed (apolactoferrin and hololactoferrin) ([2]; conditions as for API-E2)	apolactoferrin peak denaturation temperature ([2]; conditions as for API-E2) [°C]	hololactoferrin peak denaturation temperature ([2]; conditions as for API-E2) [°C]
B1	100	strong binding along the ECM	91.26 +/− 1.39% ^	above 5.5	above 5.5	neither detected by M/S or by the enzymatic assay	–	–	–
B2	–	–	–	–	–	–	loss in both detectable peaks	–	–
B3	–	only limited ECM association	–	–	–	does not result in a positive enzymatic reaction	significantly smaller than those observed for API-E2 and less defined	55	85
